Patent US20220098306A1 (published 2022)
Like-named read-outs stand apart in the source and are kept apart here.

T1: B7H3 (antigen of the affinity statements) (human, UniProt Q5ZPR3 29-466)
T1 chain: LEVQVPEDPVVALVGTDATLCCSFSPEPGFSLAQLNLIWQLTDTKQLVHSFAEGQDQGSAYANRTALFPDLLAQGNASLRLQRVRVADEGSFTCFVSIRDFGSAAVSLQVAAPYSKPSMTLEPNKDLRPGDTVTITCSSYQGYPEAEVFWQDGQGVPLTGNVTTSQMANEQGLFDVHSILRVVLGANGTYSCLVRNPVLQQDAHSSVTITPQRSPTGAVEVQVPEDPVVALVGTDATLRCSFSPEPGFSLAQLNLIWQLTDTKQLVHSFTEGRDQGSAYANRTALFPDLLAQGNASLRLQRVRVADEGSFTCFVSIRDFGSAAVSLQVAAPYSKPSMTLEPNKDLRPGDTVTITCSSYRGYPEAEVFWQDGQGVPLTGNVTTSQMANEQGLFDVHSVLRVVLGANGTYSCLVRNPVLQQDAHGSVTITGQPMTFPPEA

T2: cynomolgus B7H3
T2 chain: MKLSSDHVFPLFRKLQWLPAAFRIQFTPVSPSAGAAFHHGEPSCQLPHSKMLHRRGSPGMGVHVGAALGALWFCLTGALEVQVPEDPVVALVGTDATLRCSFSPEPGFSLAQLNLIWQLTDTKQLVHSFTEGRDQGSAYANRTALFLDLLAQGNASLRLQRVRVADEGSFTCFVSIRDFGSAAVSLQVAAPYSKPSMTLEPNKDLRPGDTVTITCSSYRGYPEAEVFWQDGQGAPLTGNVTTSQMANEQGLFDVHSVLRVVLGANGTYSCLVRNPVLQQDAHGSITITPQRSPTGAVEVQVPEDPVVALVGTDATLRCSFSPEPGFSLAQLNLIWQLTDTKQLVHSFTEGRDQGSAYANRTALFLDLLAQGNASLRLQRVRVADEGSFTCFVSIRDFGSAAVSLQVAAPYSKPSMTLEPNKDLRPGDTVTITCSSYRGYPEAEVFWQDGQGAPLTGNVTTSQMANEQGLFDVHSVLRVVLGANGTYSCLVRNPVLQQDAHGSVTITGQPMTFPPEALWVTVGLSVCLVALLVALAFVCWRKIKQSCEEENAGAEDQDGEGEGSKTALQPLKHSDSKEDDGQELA


What was measured:
[1] = target: T1, B7H3 (antigen of the affinity …)
cynomolgus B7H3 = target: T2, cynomolgus B7H3
[2] = target: T3, CD28 (antigen of the affinity determinations) (human, UniProt P10747 19-152); assay: -; Fab, 2+1 CLC
[3] = target: T1, B7H3 (antigen of the affinity …); assay: -; monovalent KD
[4] = target: T3, CD28 (antigen of the affinity …)

Row | Kd [1] [nM] | Kd (cynomolgus B7H3) [nM] | Kd [2] [nM] | Kd [3] [nM] | Kd [4] [nM] | Binder
1 | 0.5 | 1.4 | – | – | – | 38E2_H2_L1.1 (antibody, V domains shown) VH: EVQLVESGGGLVKPGGSLRLSCAASGFSFSVGYYMCWVRQAPGKGLEWVSCIYVGSGSSGSTYYASVKGRFTISSDTAKTSVYLQMNSLRAEDTAVYFCARTAGSDWRLDLWGQGTLVTVSS VL: DIVMTQSPSSLSASVGDRVTITCRASQSIANELSWYQQKPGKPPKLLIYRASTLTSGVPSRFKGSGSGTDFTLTISSLQPEDFATYYCQSTYNGRAIGFGGGTKVEIK
2 | 8.1 | 4.2 | – | – | – | 6A1_H1L1 (antibody, V domains shown) VH: EVQLLESGGGLVQPGGSLRLSCAASGFTFSNYYMAWVRQAPGKGLEWVSSISTGGGSTYYRDSVKGRFTISRDNSKSTLYLQMNSLRAEDTAVYYCTTDLSAIAATPFAYWGQGTLVTVSS VL: DIQMTQSPSSLSASVGDRVTITCRASQNIYTSLAWYQQKPGKAPKLLIYNAHSLQTGIPSRFSGSGSGADFTLTISSLQPEDFATYFCQQYYSGLTFGSGTKLEIK
3 | – | – | 62.8 | – | – | H1.14_L1 (XENP31398) (antibody, V domains shown) VH: EVQLLESGGGLVQPGGSLRLSCAASGFTFSSYYMSWVRQAPGKGLEWVSTISGSGDSTYYADSVKGRFTISRDNSKNTLYLQMNSLRAEDTAVYYCAKSGPGLRQVGFDYWGQGTLVTVSS VL: not shown
4 | 29.7 | 27.2 | – | – | – | 3C4_H1_L1.1 (antibody, V domains shown) VH: EVQLLESGGGLVQPGGSLRLSCAVSGFSLSSYGVIWVRQAPGKGLEYVSWVSSGGSTNYASSVKGRFTISRDTSKNTVYLQMNSLRAEDTAVYFCARGATNSGTDIWGPGTLVTVSS VL: DIVMTQSPSSLSASVGDRVTITCRASQSINSWLSWYQQKPGKPPKLLIYGASNLASGVPSRFKGSGSGTDFTLTISSLQPEDFATYYCQNNYGIIAAGATFGGGTKVEIK
5 | – | – | – | 7.6 | 63 | XENP34398 (bispecific antibody) heavy 1: EVQLLESGGGLVQPGGSLRLSCAASGFTFSSYYMSWVRQAPGKGLEWVSTISESGDSTYYADSVKGRFTISRDNSKNTLYLQMNSLRAEDTAVYYCAKSGPGLRQVGFDYWGQGTLVTVSSASTKGPSVFPLAPSSKSTSGGTAALGCLVKDYFPEPVTVSWNSGALTSGVHTFPAVLQSSGLYSLSSVVTVPSSSLGTQTYICNVNHKPSDTKVDKKVEPKSCDKTHTCPPCPAPPVAGPSVFLFPPKPKDTLMISRTPEVTCVVVDVKHEDPEVKFNWYVDGVEVHNAKTKPREEEYNSTYRVVSVLTVLHQDWLNGKEYKCKVSNKALPAPIEKTISKAKGQPREPQVYTLPPSREEMTKNQVSLTCDVSGFYPSDIAVEWESDGQPENNYKTTPPVLDSDGSFFLYSKLTVDKSRWEQGDVFSCSVLHEALHSHYTQKSLSLSPGK heavy 2: QVQLVQSGAEVKKPGASVKVSCKASGYIFTNNYMHWVRQAPGQGLEWMGIISPSVGRTAYAQKFQGRVTMTRDTSTSTVYMELSSLRSEDTAVYYCARGGGSSPRLDYWGQGTLVTVSSASTKGPSVFPLAPSSKSTSGGTAALGCLVKDYFPEPVTVSWNSGALTSGVHTFPAVLQSSGLYSLSSVVTVPSSSLGTQTYICNVNHKPSNTKVDKKVEPKSCGKPGSGKPGSQVQLVQSGAEVKKPGASVKVSCKASGYIFTNNYMHWVRQAPGQGLEWMGIISPSVGRTAYAQKFQGRVTMTRDTSTSTVYMELSSLRSEDTAVYYCARGGGSSPRLDYWGQGTLVTVSSASTKGPSVFPLAPSSKSTSGGTAALGCLVKDYFPEPVTVSWNSGALTSGVHTFPAVLQSSGLYSLSSVVTVPSSSLGTQTYICNVNHKPSNTKVDKKVEPKSCDKTHTCPPCPAPPVAGPSVFLFPPKPKDTLMISRTPEVTCVVVDVKHEDPEVKFNWYVDGVEVHNAKTKPREEQYNSTYRVVSVLTVLHQDWLNGKEYKCKVSNKALPAPIEKTISKAKGQPREPQVYTLPPSREQMTKNQVKLTCLVKGFYPSDIAVEWESNGQPENNYKTTPPVLDSDGSFFLYSKLTVDKSRWQQGNVFSCSVLHEALHSHYTQKSLSLSPGK light: not shown
6 | – | – | – | 0.5 | 360 | XENP35153 (bispecific antibody) heavy: EVQLLESGGGLVQPGGSLRLSCAVSGFSLSSYGVIWVRQAPGKGLEYVSWVSSGGSTNYASSVKGRFTISRDTSKNTVYLQMNSLRAEDTAVYFCARGATNSGTDIWGPGTLVTVSSASTKGPSVFPLAPSSKSTSGGTAALGCLVKDYFPEPVTVSWNSGALTSGVHTFPAVLQSSGLYSLSSVVTVPSSSLGTQTYICNVNHKPSDTKVDKKVEPKSCDKTHTCPPCPAPPVAGPSVFLFPPKPKDTLMISRTPEVTCVVVDVKHEDPEVKFNWYVDGVEVHNAKTKPREEEYNSTYRVVSVLTVLHQDWLNGKEYKCKVSNKALPAPIEKTISKAKGQPREPQVYTLPPSREEMTKNQVSLTCDVSGFYPSDIAVEWESDGQPENNYKTTPPVLDSDGSFFLYSKLTVDKSRWEQGDVFSCSVLHEALHSHYTQKSLSLSPGK scFv-Fc: not shown light: DIVMTQSPSSLSASVGDRVTITCRASQSINSWLSWYQQKPGKPPKLLIYGASNLASGVPSRFKGSGSGTDFTLTISSLQPEDFATYYCQNNYGIIAAGATFGGGTKVEIKRTVAAPSVFIFPPSDEQLKSGTASVVCLLNNFYPREAKVQWKVDNALQSGNSQESVTEQDSKDSTYSLSSTLTLSKADYEKHKVYACEVTHQGLSSPVTKSFNRGEC
7 | – | – | – | 8.1 | 370 | XENP34732 (bispecific antibody) heavy: EVQLLESGGGLVQPGGSLRLSCAASGFTFSNYYMAWVRQAPGKGLEWVSSISTGGGSTYYRDSVKGRFTISRDNSKSTLYLQMNSLRAEDTAVYYCTTDLSAIAATPFAYWGQGTLVTVSSASTKGPSVFPLAPSSKSTSGGTAALGCLVKDYFPEPVTVSWNSGALTSGVHTFPAVLQSSGLYSLSSVVTVPSSSLGTQTYICNVNHKPSDTKVDKKVEPKSCDKTHTCPPCPAPPVAGPSVFLFPPKPKDTLMISRTPEVTCVVVDVKHEDPEVKFNWYVDGVEVHNAKTKPREEEYNSTYRVVSVLTVLHQDWLNGKEYKCKVSNKALPAPIEKTISKAKGQPREPQVYTLPPSREEMTKNQVSLTCDVSGFYPSDIAVEWESDGQPENNYKTTPPVLDSDGSFFLYSKLTVDKSRWEQGDVFSCSVLHEALHSHYTQKSLSLSPGK scFv-Fc: not shown light: DIQMTQSPSSLSASVGDRVTITCRASQNIYTSLAWYQQKPGKAPKLLIYNAHSLQTGIPSRFSGSGSGADFTLTISSLQPEDFATYFCQQYYSGLTFGSGTKLEIKRTVAAPSVFIFPPSDEQLKSGTASVVCLLNNFYPREAKVQWKVDNALQSGNSQESVTEQDSKDSTYSLSSTLTLSKADYEKHKVYACEVTHQGLSSPVTKSFNRGEC
8 | 12 | 7 | – | – | – | 2E4A3_H1.3_1A7_L1 (antibody, V domains shown) VH: QVQLVQSGAEVKKPGASVKVSCKASGYIFTNHYMHWVRQAPGQGLEWMGIISPSAGSTDYAQKFQGRVTMTRDTSTSTVYMELSSLRSEDTAVYYCARGGGSSPRLDYWGQGTLVTVSS VL: not shown
9 | 7.6 | 4.3 | – | – | – | 2E4A3_H1.22_1A7_L1 (antibody, V domains shown) VH: QVQLVQSGAEVKKPGASVKVSCKASGYIFTNNYMHWVRQAPGQGLEWMGIISPSVGRTAYAQKFQGRVTMTRDTSTSTVYMELSSLRSEDTAVYYCARGGGSSPRLDYWGQGTLVTVSS VL: not shown
10 | 6.1 | 5.3 | – | – | – | 2E4A3_H1.22_L1 (antibody, V domains shown) VH: QVQLVQSGAEVKKPGASVKVSCKASGYIFTNNYMHWVRQAPGQGLEWMGIISPSVGRTAYAQKFQGRVTMTRDTSTSTVYMELSSLRSEDTAVYYCARGGGSSPRLDYWGQGTLVTVSS VL: not shown
